From article PMC3660254, “Control of Translation and miRNA-Dependent Repression by a Novel Poly(A) Binding Protein, hnRNP-Q”

Target: T1, hnRNP-Q2 (SYNCRIP, hnRNP-Q isoform 2) (mouse (cDNA from Krebs-2 cells), UniProt Q7TMK9-2 1-562)
T1 sequence: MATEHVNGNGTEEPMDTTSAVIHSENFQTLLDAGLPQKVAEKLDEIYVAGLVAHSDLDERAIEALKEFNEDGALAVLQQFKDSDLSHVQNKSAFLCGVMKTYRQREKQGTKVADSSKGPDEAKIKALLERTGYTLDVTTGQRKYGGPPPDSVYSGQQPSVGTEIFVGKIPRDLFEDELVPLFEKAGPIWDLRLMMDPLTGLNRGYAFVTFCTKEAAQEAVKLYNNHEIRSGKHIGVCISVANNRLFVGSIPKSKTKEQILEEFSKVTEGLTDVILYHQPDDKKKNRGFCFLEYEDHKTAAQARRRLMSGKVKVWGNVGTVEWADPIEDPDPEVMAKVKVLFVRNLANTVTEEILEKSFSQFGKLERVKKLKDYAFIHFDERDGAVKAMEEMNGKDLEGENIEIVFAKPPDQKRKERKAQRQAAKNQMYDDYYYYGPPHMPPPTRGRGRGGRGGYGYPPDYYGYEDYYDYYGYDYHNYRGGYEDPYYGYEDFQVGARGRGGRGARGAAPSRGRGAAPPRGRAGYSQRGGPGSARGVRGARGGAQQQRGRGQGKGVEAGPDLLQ
Assay: EMSA; apparent Kd, 2 mM Mg2+; three experiments; EMSA: 20 mM HEPES-KOH pH 7.3, ~100 mM KCl, 2 mM MgCl2, 1 mM DTT, 0.05% NP40, 5% glycerol, 0.1 mg/ml acetylated BSA (plus 2 ul protein in buffer A), 30 C 30 min, gel at 4 C; UV crosslinking in nuclease-treated RRL
Conditions: protein: recombinant; tags: C-terminal His6 (pET28a); label: 5' 32P; single strand

AAAAAAAAAAAAAAAAAAAAAAAAAAAAAA (ssRNA) [oligo(A)30] was tested, and the Kd was roughly 30 nM.
